Series [1] has as its target Complement C5 (Homo sapiens) (UniProt P01031+P01031). The series is described as follows: filter. Particulars: 2'-F pyrimidines.
The target in series [2] is Complement C1q (Homo sapiens?) (UniProt P02745+P02746+P02747). The series can be described thus: filter. Particulars: MgPBS 37C.

Bounds are passed on as bounds.

Sequence of Complement C1q (Homo sapiens?) (P02745 23-245, chain 1 of 3): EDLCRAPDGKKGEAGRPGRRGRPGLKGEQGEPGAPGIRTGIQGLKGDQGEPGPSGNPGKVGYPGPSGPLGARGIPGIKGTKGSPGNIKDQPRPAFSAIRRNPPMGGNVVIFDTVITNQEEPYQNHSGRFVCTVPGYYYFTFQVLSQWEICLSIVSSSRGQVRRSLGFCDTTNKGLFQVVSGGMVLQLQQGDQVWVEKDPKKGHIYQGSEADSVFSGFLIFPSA
Sequence of Complement C1q (Homo sapiens?) (P02746 28-253, chain 2 of 3): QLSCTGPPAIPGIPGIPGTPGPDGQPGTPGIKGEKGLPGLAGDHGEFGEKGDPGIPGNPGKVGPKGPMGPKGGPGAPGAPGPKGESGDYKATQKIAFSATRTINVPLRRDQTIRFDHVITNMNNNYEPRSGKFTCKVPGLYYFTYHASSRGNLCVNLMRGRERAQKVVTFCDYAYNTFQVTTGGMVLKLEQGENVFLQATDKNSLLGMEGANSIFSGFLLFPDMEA
Sequence of Complement C1q (Homo sapiens?) (P02747 29-245, chain 3 of 3): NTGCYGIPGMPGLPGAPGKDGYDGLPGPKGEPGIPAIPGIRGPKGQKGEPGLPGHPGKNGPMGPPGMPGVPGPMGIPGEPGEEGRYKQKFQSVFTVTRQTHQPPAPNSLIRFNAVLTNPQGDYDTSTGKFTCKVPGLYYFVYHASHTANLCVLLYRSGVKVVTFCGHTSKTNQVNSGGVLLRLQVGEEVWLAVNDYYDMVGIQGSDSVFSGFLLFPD

As to “GGGAGGACGAUGCGGNNNNNNNNNNNNNNNNNNNNNNNNNNNNNNCAGACGACUCGCCCGA [random 30N7 2'-F RNA pool]”, the Kd (commonly the free concentration of one partner at which half of the binding sites on the other are occupied at equilibrium, for simple one-to-one binding) in series [1] (random pool, likely should be larger) was above 1 nM; in series [2] (2'-F pyrimidines), 2300 nM.

With “GGGAGGACGAUGCGGNNNNNNNNNNNNNNNNNNNNNNNNNNNNNNNNNNNNNNNNNNNNNNNNNNCAGACGACUCGCCCGA [random 50N7 2'-NH2 RNA pool]”, the Kd in series [2] (2'-NH2 pyrimidines) was 2300 nM. That is a single-digit micromolar value.

In turn, “GGGAGGACGAUGCGGUGUUCAGCAUUCAGNAUCUUCACGUGUCGUCAGACGACUCGCCCGA [G3]” showed a Kd in series [1] (MgPBS 37C) of 55 nM.
